Optical density data for 45 molecules are collected here from patent publication US20210380703A1.

Residue numbers refer to the chain shown, from its start.

First the molecules themselves.
B1: 368_A02 (antibody, V domains shown)
VH: EVQLLESGGGLVQPGGSLRLSCAASGFTFDSYGMNWVRQAPGKGLEWVAGINYNGGYKSYADSVKGRFTISRDNSKNTLYLQMNSLRAEDTAVYYCARAANWHDTHLDYWGQGTLVTVSS
VL: DIQMTQSPSSLSASVGDRVTITCRASQSIISYVNWYQQKPGKAPKLVIYAATSRASGVPSRFSGSGSGTDFTLTISSLQPEDFATYYCQQSYDTPLTFGGGTKVEIK
B2: 373_E10 (antibody, V domains shown)
VH: B1 VH with D30S, S31D, G33S, A49S, K58T, A99G, H106A
VL: B1 VL with I30L, S31T, A55H, D93E
B3: 373_G08 (antibody, V domains shown)
VH: B1 VH with G33S, A49S, G50N, K58T, A99G, H106A
VL: B1 VL with I30L, S31T, V33L, V47L, R54L, T94S
B4: 373_H03 (antibody, V domains shown)
VH: B1 VH with D30S, G33S, A49S, G55S, A99G, H106A
VL: B1 VL with I30L, V33L, V47L, A51T, D93E, T94N
B5: 373_H09 (antibody, V domains shown)
VH: B1 VH with D30S, G50S, G55S, A99G
VL: B1 VL with S31T, V33L, Y92D, T94S
B6: 374_A06 (antibody, V domains shown)
VH: B1 VH with D30S, G33S, A49S, G50S, G55S, K58T, A99G
VL: B1 VL with I30L, V33L, T94S
B7: 373_F11 (antibody, V domains shown)
VH: B1 VH with N35H, A49S, G55S, K58T, A99G
VL: B1 VL with I30V, V47L, D93N, T94L
B8: 373_H07 (antibody, V domains shown)
VH: B1 VH with D30S, G33S, K58T, A99G
VL: B1 VL with I30V, S31T, V33L, V47L, T52S, R54L, A55Q, T94S
B9: 373_D12 (antibody, V domains shown)
VH: B1 VH with G33S, A49S, G50S, G55S, S59G, A99G
VL: B1 VL with I30L, V47L, D93S, T94L
B10: 374_A09 (antibody, V domains shown)
VH: B1 VH with D30S, G33S, A49S, G50S, S59G, A99G
VL: B1 VL with I30L, S31T, V47L, R54L, T94S
B11: 373_F12 (antibody, V domains shown)
VH: B1 VH with D30S, G33S, A49S, G50N, K58T, S59G, A99G, H106A
VL: B1 VL with I30S, S31T, V33L, D93E
B12: 373_F08 (antibody, V domains shown)
VH: B1 VH with D30S, G33S, A49S, K58T, A99G, H106A
VL: B1 VL with I30L, S31T, V33L, V47L
B13: 367_C01 (antibody, V domains shown)
VH: B1 VH with S31D, G33S, A49S, A99S
VL: B1 VL with I30L, S31T, V33L, A51T, R54L, A55H
B14: 368_A01 (antibody, V domains shown)
VH: B1 VH with D30S, A49S, G50N, K58T, A99S, H106A
VL: B1 VL with V33L, V47L, A55H, T94N
B15: 368_E06 (antibody, V domains shown)
VH: B1 VH with D30S, S31D, N35H, A49S, K58T, S59G, A99S, H106A
VL: B1 VL with I30L, V33L, A50G, T94S
B16: 368_A05 (antibody, V domains shown)
VH: B1 VH with D30S, G33S, G55S, K58T, S59G, A99S, H106A
VL: B1 VL with I30V, V33L, T94S
B17: 368_D05 (antibody, V domains shown)
VH: B1 VH with D30S, G33S, A49S, K58T, A99S, H106A
VL: B1 VL with I30L, S31T, V33L, Y92D, T94S
B18: 367_D10 (antibody, V domains shown)
VH: B1 VH with A49S, G50N, K58T, A99S, H106A
VL: B1 VL with V33L
B19: 368_G12 (antibody, V domains shown)
VH: B1 VH with D30S, G50S, G55S, K58T, S59G, A99S, H106A
VL: B1 VL with I30S, A51V, D93E
B20: 367_E01 (antibody, V domains shown)
VH: B1 VH with D30S, A99S, H106A
VL: B1 VL with I30L, V47L, A51T, T94L
B21: 367_E04 (antibody, V domains shown)
VH: B1 VH with D30S, S31D, G33S, A49S, G50S, S59G, A99S
VL: B1 VL with I30L, V33L, V47L, D93E, T94S
B22: 368_D11 (antibody, V domains shown)
VH: B1 VH with S31D, A49S, G50N, A99S, H106A
VL: B1 VL with I30L, S31T, V33L, T94L
B23: 368_G01 (antibody, V domains shown)
VH: B1 VH with D30S, S31D, N35H, G50S, G55S, K58T, A99S, H106A
VL: B1 VL with I30L, S31T, V33L, D93N, T94L
B24: 367_G06 (antibody, V domains shown)
VH: B1 VH with D30S, A49S, G55S, A99S
VL: B1 VL with I30L, S31T, V47L, A51T, R54L, A55H
B25: 368_F11 (antibody, V domains shown)
VH: B1 VH with D30S, S31D, A49S, K58T, A99S
VL: B1 VL with I30V, D93N, T94N
B26: 367_C05 (antibody, V domains shown)
VH: B1 VH with S31D, A49S, G50S, K58T, S59G, A99S
VL: B1 VL with I30L, A55H, T94L
B27: 367_F07 (antibody, V domains shown)
VH: B1 VH with N35H, G50N, K58T, S59G, A99S, H106A
VL: B1 VL with V47L, D93E
B28: 368_E04 (antibody, V domains shown)
VH: B1 VH with D30S, G33S, G50N, G55S, K58T, S59G, A99S, H106A
VL: B1 VL with I30L, V47L, A55H, T94N
B29: 367_H06 (antibody, V domains shown)
VH: B1 VH with D30S, A49S, G50N, K58T, S59G, A99S
VL: B1 VL with S31T, V33L, V47L
B30: 368_C05 (antibody, V domains shown)
VH: B1 VH with A49S, G55S, K58T, A99S, H106A
VL: B1 VL with I30L, V33L, Y92D, D93S, T94N
B31: 368_H04 (antibody, V domains shown)
VH: B1 VH with D30S, G33S, G55S, S59G, R98K, A99S
VL: B1 VL with I30V, V47L, T94S
B32: 368_E01 (antibody, V domains shown)
VH: B1 VH with D30S, G33S, G50S, G55S, K58T, S59G, A99S
VL: B1 VL with I30L, V33L, V47L, A51V, A55H, D93S, T94L
B33: 367_H11 (antibody, V domains shown)
VH: B1 VH with D30S, S59G, A99S, H106A
VL: B1 VL with D93N, T94S
B34: 367_F03 (antibody, V domains shown)
VH: B1 VH with D30S, G33S, G55S, A99S, H106A
VL: B1 VL with I30L, R54L, Y92D
B35: 367_G10 (antibody, V domains shown)
VH: B1 VH with S31D, A49S, K58T, A99S, H106A
VL: B1 VL with V47L, T94S
B36: 367_G05 (antibody, V domains shown)
VH: B1 VH with D30S, S31D, G50N, K58T, A99S, H106A
VL: B1 VL with I30V, V33L, R54L
B37: 367_E09 (antibody, V domains shown)
VH: B1 VH with D30S, S31D, G50S, G55S, S59G, A99S, H106A
VL: B1 VL with I30L, V33L, A51T, D93E
B38: 368_A09 (antibody, V domains shown)
VH: B1 VH with G33S, A49S, K58T, A99S
VL: B1 VL with I30L, V47L, A51V, T94S
B39: 368_B01 (antibody, V domains shown)
VH: B1 VH with D30S, A49S, G55S, A99S, H106A
VL: B1 VL with I30S, V33L, V47L, D93E
B40: 368_E07 (antibody, V domains shown)
VH: B1 VH with D30S, K58T, R98K, A99S, H106A
VL: B1 VL with I30L, V33L, V47L, A51V, D93E, T94N
B41: 367_E11 (antibody, V domains shown)
VH: B1 VH with A49S, G50S, G55S, S59G, A99S
VL: B1 VL with I30V, A55H
B42: 368_D04 (antibody, V domains shown)
VH: B1 VH with D30S, A49S, A99S, H106A
VL: B1 VL with I30S, S31T, A51V, A55H, T94S
B43: 368_A07 (antibody, V domains shown)
VH: B1 VH with D30S, G33S, G55S, K58T, A99S
VL: B1 VL with I30L, S31T, V33L, A51T, Y92N, D93E, T94L
B44: 368_F03 (antibody, V domains shown)
VH: B1 VH with G33S, G55S, K58T, S59G, R98K, A99S, H106A
VL: B1 VL with V33L, A55H, T94S
B45: 368_D01 (antibody, V domains shown)
VH: B1 VH with D30S, N35H, G50N, K58T, A99S, H106A
VL: B1 VL with I30L, V33L, Y92D, D93S

One experiment has as its target human Fc (human). The experiment is described as follows: ELISA, negative control. For orientation: In an ELISA, binding on a coated surface is turned into a signal by an enzyme label.
B1 returned an optical density of 0.376 OD.

Molecule B2 gave an optical density of 0.188 OD.

In the case of B3, the optical density is 0.172 OD.

With B4, the optical density was 0.172 OD.

B5 showed an optical density of 0.166 OD.

Take B6: the optical density came to 0.173 OD.

On to B7, for which the optical density amounted to 0.204 OD.

Consider B8, for which the optical density was 0.199 OD.

For the molecule B9, the optical density came to 0.224 OD.

B10 gave an optical density of 0.231 OD.

B11: the optical density was 0.158 OD.

With B12, the optical density was found to be 0.202 OD.

Another experiment deals with Human Fc (human). The experiment is described as follows: ELISA, negative control.
With B13, the optical density turned out to be 0.348 OD.

B14 registered an optical density of 0.396 OD.

Consider B15, for which the optical density was 0.325 OD.

Regarding B16, the optical density was 0.285 OD.

As to B17, the optical density was 0.282 OD.

In the case of B18, the optical density amounted to 0.251 OD.

In turn, B19 gave an optical density of 0.341 OD.

In turn, B20 gave an optical density of 0.351 OD.

B21: the optical density was 0.284 OD.

B22: the optical density stood at 0.297 OD.

Turning to B23, the optical density is 0.431 OD.

For B24, the optical density is 0.28 OD.

In turn, B25 came in with an optical density of 0.338 OD.

In turn, B26 registered an optical density of 0.255 OD.

B27: the optical density turned out to be 0.242 OD.

B28 showed an optical density of 0.32 OD.

In turn, B29 yielded an optical density of 0.313 OD.

Molecule B30 gave an optical density of 0.246 OD.

The molecule B31 displayed an optical density of 0.319 OD.

As for B32, the optical density came out at 0.392 OD.

In turn, B33 had an optical density of 0.323 OD.

For the molecule B34, the optical density came out at 0.301 OD.

Molecule B35 returned an optical density of 0.286 OD.

Turning to B36, the optical density was 0.283 OD.

B37 returned an optical density of 0.249 OD.

As to B38, the optical density worked out at 0.277 OD.

On to B39, for which the optical density was found to be 0.365 OD.

B40 returned an optical density of 0.251 OD.

B41: the optical density was 0.244 OD.

B42 had an optical density of 0.338 OD.

B43 registered an optical density of 0.261 OD.

Molecule B44 showed an optical density of 0.323 OD.

Molecule B45 registered an optical density of 0.319 OD.
